Measurements: paper PMC4157730 (Journal of molecular biology, 2012)

Tests used:
[1] = target: the molecule itself; test: negative staining transmission electron microscopy
AUC = target: the molecule itself; test: AUC

B1: human apolipoprotein (apo) C-II (natural protein, UniProt P02655 23-101, looked up)
chain: TQQPQQDEMPSPTFLTQVKESLSSYWESAKTAAQNLYEKTYLPAVDEKLRDLYSKSTAAMSTYTGIFTDQVLSVLKGEE
In the case of B1, the “stoichiometry N” value [1] is reported as ~621 subunits and the Ka (AUC) is reported as 3.27e+11 M⁻¹.
